{"source": "the supplement of paper PMC10567573", "parents": {"B1": {"name": "ZNF8 (parent)", "chain": "RIHTGERPYMCKECGKAFSQNSSL"}, "B2": {"name": "CD69 (parent)", "chain": "FVAENSSLHPESGQENDATSPHFS"}}, "data": [{"variants_of": "B1", "assay": "protein stability index of a GFP-peptide fusion (GPS, HEK-293T) (PSI 1-6); higher = more stable", "conditions": "c terminus: a fixed tail appended", "values": [{"variant": "T4C", "protein stability index": 3.04}, {"variant": "S19E", "protein stability index": 3.26}, {"variant": "S19R", "protein stability index": 1.91}, {"variant": "S19K", "protein stability index": 2.27}, {"variant": "S19T", "protein stability index": 2.35}, {"variant": "S19D", "protein stability index": 3.09}, {"variant": "S19Q", "protein stability index": 2.77}, {"variant": "S19G", "protein stability index": 2.6}, {"variant": "S19Y", "protein stability index": 2.18}, {"variant": "S19W", "protein stability index": 1.47}, {"variant": "S19I", "protein stability index": 2.01}, {"variant": "C14Q", "protein stability index": 3}, {"variant": "C14V", "protein stability index": 2.72}, {"variant": "C14Y", "protein stability index": 2.2}, {"variant": "C14E", "protein stability index": 3.07}, {"variant": "C14T", "protein stability index": 2.81}, {"variant": "C14N", "protein stability index": 3.15}, {"variant": "C14K", "protein stability index": 3.58}, {"variant": "C14P", "protein stability index": 2.99}, {"variant": "C14M", "protein stability index": 2.29}, {"variant": "A17V", "protein stability index": 3.24}, {"variant": "A17T", "protein stability index": 3.29}, {"variant": "A17G", "protein stability index": 2.42}, {"variant": "A17K", "protein stability index": 3}, {"variant": "A17D", "protein stability index": 2.84}, {"variant": "A17I", "protein stability index": 2.41}, {"variant": "R7D", "protein stability index": 3.36}, {"variant": "R7L", "protein stability index": 2.65}, {"variant": "R7I", "protein stability index": 2.6}, {"variant": "R7M", "protein stability index": 2.77}, {"variant": "E13D", "protein stability index": 1.39}, {"variant": "E13Q", "protein stability index": 2.24}, {"variant": "E13V", "protein stability index": 2.1}, {"variant": "E13L", "protein stability index": 2.3}, {"variant": "F18D", "protein stability index": 3.84}, {"variant": "H3N", "protein stability index": 2.81}, {"variant": "H3L", "protein stability index": 2.25}, {"variant": "H3A", "protein stability index": 1.99}, {"variant": "H3F", "protein stability index": 1.9}, {"variant": "H3Q", "protein stability index": 2.47}, {"variant": "H3K", "protein stability index": 2.46}, {"variant": "H3E", "protein stability index": 3.1}, {"variant": "S23H", "protein stability index": 2.9}, {"variant": "S23V", "protein stability index": 2.24}, {"variant": "S23N", "protein stability index": 2.44}, {"variant": "S23E", "protein stability index": 2.88}, {"variant": "S23C", "protein stability index": 2.75}, {"variant": "K12P", "protein stability index": 2.54}, {"variant": "K12G", "protein stability index": 2.38}, {"variant": "K12D", "protein stability index": 3.02}, {"variant": "K12S", "protein stability index": 2.46}, {"variant": "K12L", "protein stability index": 1.72}, {"variant": "K16M", "protein stability index": 2.63}, {"variant": "K16H", "protein stability index": 2.29}, {"variant": "K16D", "protein stability index": 2.52}, {"variant": "K16T", "protein stability index": 2.73}, {"variant": "K16C", "protein stability index": 1.82}, {"variant": "I2W", "protein stability index": 2.33}, {"variant": "I2D", "protein stability index": 2.43}, {"variant": "I2N", "protein stability index": 3.13}, {"variant": "Y9W", "protein stability index": 2.19}, {"variant": "Y9A", "protein stability index": 3.88}, {"variant": "Y9L", "protein stability index": 2.43}, {"variant": "Y9I", "protein stability index": 2.21}, {"variant": "Y9F", "protein stability index": 3.21}, {"variant": "Y9T", "protein stability index": 2.42}, {"variant": "Y9H", "protein stability index": 2.86}, {"variant": "Y9D", "protein stability index": 3.29}, {"variant": "Y9E", "protein stability index": 3.27}, {"variant": "Y9K", "protein stability index": 1.83}, {"variant": "Y9V", "protein stability index": 2.71}, {"variant": "P8R", "protein stability index": 2.85}, {"variant": "G15L", "protein stability index": 3.05}, {"variant": "G15E", "protein stability index": 3.46}, {"variant": "G15C", "protein stability index": 2.16}, {"variant": "C11G", "protein stability index": 3.28}, {"variant": "C11P", "protein stability index": 2.84}, {"variant": "C11Q", "protein stability index": 3.04}, {"variant": "C11V", "protein stability index": 2.72}, {"variant": "C11D", "protein stability index": 2.78}, {"variant": "C11S", "protein stability index": 2.99}, {"variant": "L24Y", "protein stability index": 2.18}, {"variant": "L24V", "protein stability index": 2.6}, {"variant": "L24D", "protein stability index": 3.56}, {"variant": "L24A", "protein stability index": 2.99}, {"variant": "L24M", "protein stability index": 2.7}, {"variant": "L24G", "protein stability index": 2.8}, {"variant": "L24W", "protein stability index": 2.73}, {"variant": "R1S", "protein stability index": 3.19}, {"variant": "R1N", "protein stability index": 2.85}, {"variant": "R1D", "protein stability index": 2.71}, {"variant": "R1K", "protein stability index": 3.01}, {"variant": "M10I", "protein stability index": 2.69}, {"variant": "M10S", "protein stability index": 2.26}, {"variant": "M10A", "protein stability index": 2.64}, {"variant": "M10P", "protein stability index": 2.62}, {"variant": "M10E", "protein stability index": 3.1}, {"variant": "M10Y", "protein stability index": 2.24}, {"variant": "G5V", "protein stability index": 2.04}, {"variant": "G5A", "protein stability index": 2.98}, {"variant": "G5R", "protein stability index": 2.13}, {"variant": "N21S", "protein stability index": 2.59}, {"variant": "N21P", "protein stability index": 2.44}, {"variant": "N21C", "protein stability index": 2.46}, {"variant": "N21A", "protein stability index": 1.94}, {"variant": "N21G", "protein stability index": 2.71}, {"variant": "E6D", "protein stability index": 2.28}, {"variant": "E6N", "protein stability index": 2.24}, {"variant": "E6W", "protein stability index": 2.27}, {"variant": "E6R", "protein stability index": 1.71}, {"variant": "E6C", "protein stability index": 1.68}, {"variant": "Q20I", "protein stability index": 2.4}, {"variant": "Q20K", "protein stability index": 2.94}, {"variant": "Q20H", "protein stability index": 2.49}, {"variant": "Q20M", "protein stability index": 2.21}, {"variant": "Q20N", "protein stability index": 2.72}, {"variant": "Q20F", "protein stability index": 1.83}, {"variant": "Q20G", "protein stability index": 2.83}, {"variant": "Q20P", "protein stability index": 2.74}, {"variant": "S22I", "protein stability index": 1.91}, {"variant": "S22F", "protein stability index": 1.89}, {"variant": "S22N", "protein stability index": 2.37}, {"variant": "S22A", "protein stability index": 2.49}, {"variant": "S22D", "protein stability index": 2.4}, {"variant": "S22V", "protein stability index": 1.9}]}, {"variants_of": "B2", "assay": "protein stability index of a GFP-peptide fusion (GPS, HEK-293T) (PSI 1-6); higher = more stable", "conditions": "c terminus: a fixed tail appended", "values": [{"variant": "D17A", "protein stability index": 3.79}, {"variant": "D17V", "protein stability index": 2.36}, {"variant": "V2A", "protein stability index": 4.94}, {"variant": "V2P", "protein stability index": 5.46}, {"variant": "P10L", "protein stability index": 2.9}, {"variant": "S6L", "protein stability index": 1.5}, {"variant": "S24C", "protein stability index": 2.5}, {"variant": "T19E", "protein stability index": 4.03}, {"variant": "T19K", "protein stability index": 2.37}, {"variant": "T19S", "protein stability index": 2.84}, {"variant": "T19R", "protein stability index": 2.92}, {"variant": "L8I", "protein stability index": 3.24}, {"variant": "L8Y", "protein stability index": 2.28}, {"variant": "G13N", "protein stability index": 3.33}, {"variant": "F1G", "protein stability index": 5.41}, {"variant": "H9M", "protein stability index": 3.08}, {"variant": "H9N", "protein stability index": 2.8}, {"variant": "S12Q", "protein stability index": 2.88}, {"variant": "S12L", "protein stability index": 2.46}, {"variant": "S20I", "protein stability index": 3.02}, {"variant": "S20M", "protein stability index": 2.78}, {"variant": "F23R", "protein stability index": 3.22}, {"variant": "F23M", "protein stability index": 3.56}, {"variant": "F23C", "protein stability index": 3.19}, {"variant": "E15V", "protein stability index": 2.67}, {"variant": "E4R", "protein stability index": 2.17}, {"variant": "E4T", "protein stability index": 2.37}, {"variant": "E11L", "protein stability index": 1.6}, {"variant": "E11A", "protein stability index": 2.51}, {"variant": "E11Q", "protein stability index": 2.48}, {"variant": "E11H", "protein stability index": 2.36}, {"variant": "A3H", "protein stability index": 3.03}, {"variant": "A3N", "protein stability index": 3.21}, {"variant": "Q14C", "protein stability index": 2.95}, {"variant": "N5I", "protein stability index": 2.16}, {"variant": "N5K", "protein stability index": 2.69}, {"variant": "N5W", "protein stability index": 1.99}, {"variant": "A18R", "protein stability index": 2.57}, {"variant": "A18S", "protein stability index": 2.91}, {"variant": "A18Y", "protein stability index": 2.23}, {"variant": "A18D", "protein stability index": 3.22}, {"variant": "H22E", "protein stability index": 3.82}]}]}
